B1: HA-SNAP-mGluR2 [modified: SNAP tag labelled with BG-LD555 (BG-LD655 in two-colour SiMPull); SNAP tag labelled with BG-LD555 (BG-LD655 in two-colour SiMPull)] [rat] / itself (parent complex)
chain: EGPAKKVLTLEGDLVLGGLFPVHQKGGPAEECGPVNEHRGIQRLEAMLFALDRINRDPHLLPGVRLGAHILDSCSKDTHALEQALDFVRASLSRGADGSRHICPDGSYATHSDAPTAVTGVIGGSYSDVSIQVANLLRLFQIPQISYASTSAKLSDKSRYDYFARTVPPDFFQAKAMAEILRFFNWTYVSTVASEGDYGETGIEAFELEARARNICVATSEKVGRAMSRAAFEGVVRALLQKPSARVAVLFTRSEDARELLAATQRLNASFTWVASDGWGALESVVAGSERAAEGAITIELASYPISDFASYFQSLDPWNNSRNPWFREFWEERFHCSFRQRDCAAHSLRAVPFEQESKIMFVVNAVYAMAHALHNMHRALCPNTTHLCDAMRPVNGRRLYKDFVLNVKFDAPFRPADTDDEVRFDRFGDGIGRYNIFTYLRAGSGRYRYQKVGYWAEGLTLDTSFIPWASPSAGPLPASRCSEPCLQNEVKSVQPGEVCCWLCIPCQPYEYRLDEFTCADCGLGYWPNASLTGCFELPQEYIRWGDAWAVGPVTIACLGALATLFVLGVFVRHNATPVVKASGRELCYILLGGVFLCYCMTFVFIAKPSTAVCTLRRLGLGTAFSVCYSALLTKTNRIARIFGGAREGAQRPRFISPASQVAICLALISGQLLIVAAWLVVEAPGTGKETAPERREVVTLRCNHRDASMLGSLAYNVLLIALCTLYAFKTRKCPENFNEAKFIGFTMYTTCIIWLAFLPIFYVTSSDYRVQTTTMCVSVSLSGSVVLGCLFAPKLHIILFQPQKNVVSHRAPTSRFGSAAPRASANLGQGSGSQFVPTVCNGREVVDSTTSSL
B2: HA-SNAP-mGluR3-C127A [modified: SNAP tag labelled with BG-LD555 (BG-LD655 in two-colour SiMPull); SNAP tag labelled with BG-LD555 (BG-LD655 in two-colour SiMPull)] [rat] / itself (parent complex)
chain: LGDHNFMRREIKIEGDLVLGGLFPINEKGTGTEECGRINEDRGIQRLEAMLFAIDEINKDNYLLPGVKLGVHILDTCSRDTYALEQSLEFVRASLTKVDEAEYMAPDGSYAIQENIPLLIAGVIGGSYSSVSIQVANLLRLFQIPQISYASTSAKLSDKSRYDYFARTVPPDFYQAKAMAEILRFFNWTYVSTVASEGDYGETGIEAFEQEARLRNICIATAEKVGRSNIRKSYDSVIRELLQKPNARVVVLFMRSDDSRELIAAANRVNASFTWVASDGWGAQESIVKGSEHVAYGAITLELASHPVRQFDRYFQSLNPYNNHRNPWFRDFWEQKFQCSLQNKRNHRQVCDKHLAIDSSNYEQESKIMFVVNAVYAMAHALHKMQRTLCPNTTKLCDAMKILDGKKLYKEYLLKINFTAPFNPNKGADSIVKFDTFGDGMGRYNVFNLQQTGGKYSYLKVGHWAETLSLDVDSIHWSRNSVPTSQCSDPCAPNEMKNMQPGDVCCWICIPCEPYEYLVDEFTCMDCGPGQWPTADLSGCYNLPEDYIKWEDAWAIGPVTIACLGFLCTCIVITVFIKHNNTPLVKASGRELCYILLFGVSLSYCMTFFFIAKPSPVICALRRLGLGTSFAICYSALLTKTNCIARIFDGVKNGAQRPKFISPSSQVFICLGLILVQIVMVSVWLILETPGTRRYTLPEKRETVILKCNVKDSSMLISLTYDVVLVILCTVYAFKTRKCPENFNEAKFIGFTMYTTCIIWLAFLPIFYVTSSDYRVQTTTMCISVSLSGFVVLGCLFAPKVHIVLFQPQKNVVTHRLHLNRFSVSGTATTYSQSSASTYVPTVCNGREVLDSTTSSL

Variants of: B1
Assay: SiMPull; shaded bar, data repeated from Figure 1F; read off a plot

| Variant | screen value [%] |
| --- | --- |
| chain 1 C103A | ~91 |

Variants of: B2
Assay: SiMPull; SNAP-tagged constructs labeled with LD555; 6 movies; read off a plot

| Variant | screen value [%] |
| --- | --- |
| chain 1 S664A, chain 1 F668A, chain 1 G672A | ~74 |

From publication PMC8102066 (2021)
